# Laboratory results reported in patent US20240166767A1 (SCIRHOM, published 2024).
# Changes are numbered by the printed parent chain.
# B1: humanized antibody 42-B-04 (antibody, V domains shown)
# VH: QVTLRESGPALVKPTQTLTLTCTFSGFSLSTFGRGVGWIRQPPGKALEWLAHIWWDDEKYYNSALKSRLTISKDTSKNQVVLTITNMDPVDTATYYCARIQNYGSNYWYFDVWGQGTLVTVSS
# VL: AIQLTQSPSSLSASVGDRVTITCRASSRISYMFWYQQKPGKAPKVLIYDTSNLASGVPSRFSGSGSGTDYTLTISSLQPEDFATYYCQQWNAYPLTFGQGTKLEIK
# notes: Tested as whole humanized antibody produced in CHO cells and detected with anti-human IgG; the general methods speak of human IgG1/Kappa; also called clone 42-B-04
# B2: humanized antibody 42-B-02 (antibody, V domains shown)
# VH: B1 VH
# VL: B1 VL with A92S
# notes: Tested as whole humanized antibody from transient expression of heavy chain/kappa light chain pairs in CHO cells, detected with anti-human IgG; the general methods speak of human IgG1/Kappa; also called clone 42-B-02
# B3: humanized antibody 23-B-04 (antibody, V domains shown)
# VH: B1 VH with R34M, Q101S, D111N
# VL: B1 VL with R28S, I29V, F33Y
# notes: Tested as whole humanized antibody produced in CHO cells and detected with anti-human IgG; the general methods speak of human IgG1/Kappa; also called clone 23-B-04
# What was measured:
# endogenous human iRhom2 = target: T1, endogenous human iRhom2 (human, UniProt Q6PJF5 1-856); experiment: cell-based or functional assay
# T1 sequence: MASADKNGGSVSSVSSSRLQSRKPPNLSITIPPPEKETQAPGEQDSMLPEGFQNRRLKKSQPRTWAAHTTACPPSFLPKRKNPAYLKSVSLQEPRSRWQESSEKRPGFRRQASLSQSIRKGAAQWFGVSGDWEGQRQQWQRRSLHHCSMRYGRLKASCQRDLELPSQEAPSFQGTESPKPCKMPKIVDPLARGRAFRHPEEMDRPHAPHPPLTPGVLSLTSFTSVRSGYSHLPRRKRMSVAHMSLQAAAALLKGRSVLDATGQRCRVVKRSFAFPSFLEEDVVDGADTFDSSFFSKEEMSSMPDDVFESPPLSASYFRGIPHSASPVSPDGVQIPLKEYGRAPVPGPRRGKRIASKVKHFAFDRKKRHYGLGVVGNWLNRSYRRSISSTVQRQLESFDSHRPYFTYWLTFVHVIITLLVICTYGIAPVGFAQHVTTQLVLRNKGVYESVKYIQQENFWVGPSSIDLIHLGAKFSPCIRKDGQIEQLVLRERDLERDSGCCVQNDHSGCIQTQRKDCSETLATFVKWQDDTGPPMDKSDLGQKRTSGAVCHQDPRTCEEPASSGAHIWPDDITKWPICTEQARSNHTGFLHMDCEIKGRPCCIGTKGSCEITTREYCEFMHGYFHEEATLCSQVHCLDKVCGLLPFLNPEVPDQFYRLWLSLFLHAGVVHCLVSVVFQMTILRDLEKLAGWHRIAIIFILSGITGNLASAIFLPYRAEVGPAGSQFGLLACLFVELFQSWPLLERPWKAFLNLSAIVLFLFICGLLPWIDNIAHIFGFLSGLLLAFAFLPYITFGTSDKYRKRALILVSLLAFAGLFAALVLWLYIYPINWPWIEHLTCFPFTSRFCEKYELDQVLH
# [1] = target: T2, mouse iRhom2 full length wild type C-terminally tagged with 3 consecutive copies of the T7 epitope (mouse, UniProt Q80WQ6 1-827); experiment: FACS on MEF-DKO-miR2-FL-WT-T7 cells
# T2 construct: also called miR2-FL-WT-T7; mouse iRhom2 variant
# T2 sequence: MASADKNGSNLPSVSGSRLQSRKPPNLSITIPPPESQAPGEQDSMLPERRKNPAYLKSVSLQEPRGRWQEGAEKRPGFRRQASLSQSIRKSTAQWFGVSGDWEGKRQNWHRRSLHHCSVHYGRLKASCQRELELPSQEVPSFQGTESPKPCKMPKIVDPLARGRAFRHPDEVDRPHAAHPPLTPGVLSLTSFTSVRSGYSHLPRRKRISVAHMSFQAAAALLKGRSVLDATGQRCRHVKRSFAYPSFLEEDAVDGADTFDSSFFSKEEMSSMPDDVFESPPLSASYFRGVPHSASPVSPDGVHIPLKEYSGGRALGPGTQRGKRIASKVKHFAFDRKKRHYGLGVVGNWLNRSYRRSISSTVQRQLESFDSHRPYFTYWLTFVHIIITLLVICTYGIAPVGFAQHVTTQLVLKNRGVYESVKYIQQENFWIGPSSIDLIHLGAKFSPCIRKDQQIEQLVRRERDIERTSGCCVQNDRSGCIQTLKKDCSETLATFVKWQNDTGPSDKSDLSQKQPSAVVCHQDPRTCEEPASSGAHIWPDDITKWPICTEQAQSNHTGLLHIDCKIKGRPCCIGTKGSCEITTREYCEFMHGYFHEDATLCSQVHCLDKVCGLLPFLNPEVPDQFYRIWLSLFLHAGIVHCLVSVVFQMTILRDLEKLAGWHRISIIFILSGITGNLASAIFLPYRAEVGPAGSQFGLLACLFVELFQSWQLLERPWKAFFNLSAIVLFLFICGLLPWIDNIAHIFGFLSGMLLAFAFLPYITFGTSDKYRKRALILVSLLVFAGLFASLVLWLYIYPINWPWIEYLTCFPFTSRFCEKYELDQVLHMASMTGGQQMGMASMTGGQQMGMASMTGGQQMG
# Experimental: In brief, immortalized MEF-DKO-EV control cells, MEF-DKO-hiR2-FL-WT-T7 cells and MEF-DKO-miR2-FL-WT-T7 cells were harvested with 10 mM EDTA in PBS, washed and resuspended in FACS buffer (PBS, 3% FBS, 0.05% sodium azide), and seeded in Nunc U-bottom 96-well plates (Thermo Fisher Scientific, USA) at approximately 3×10⁵ cells per well. To pellet cells and remove supernatants, the plates were centrifuged at 1,500 rpm and 4° C. for 3 minutes. For primary staining, cells were resuspended in 100 μl per well of either FACS buffer alone (controls), mouse monoclonal anti-T7 IgG (Merck Millipore, USA) at 3 μg/ml FACS buffer or the humanized antibodies 16-B-03, 16-B-05, 16-B-07, 23-B-04, 42-B-02 and 42-B-04 of the invention also at 3 μg/ml FACS buffer and incubated on ice for 1 hour. Afterwards, plates were centrifuged at 1,500 rpm and 4° C. for 3 minutes and washed twice with 200 μl per well of FACS buffer. For secondary staining of previous anti T7 staining, cells were spun down and resuspended in 100 μl per well of PE-conjugated goat anti-mouse IgG F(ab′)2 detection fragment (Dianova, Germany) diluted 1:100 in FACS buffer. For secondary staining of previous staining with humanized antibodies of invention, cells were spun down and resuspended in 100 μl per well of PE-conjugated goat anti-human IgG F(ab′)2 detection fragment (Dianova, Germany) diluted 1:100 in FACS buffer. Protected from light, the cell suspensions were incubated on ice for 1 hour. Plates were then centrifuged at 1,500 rpm and 4° C. for 3 minutes and washed three times with 200 μl per well of FACS buffer. Finally, cells were resuspended in 150 μl per well of FACS buffer and analyzed using a BD Accuri™ C6 Plus flow cytometer (Becton Dickinson, Germany).
Binder,"percent inhibition of LPS-induced release of TNFα from PBMCs from healthy donors (ELISA, antibody 3 µg/ml) (endogenous human iRhom2) [%]","percent inhibition of LPS-induced release of TNFα from THP-1 cells (ELISA, antibody 3 µg/ml) (endogenous human iRhom2) [%]","percent inhibition of PMA-induced release of HB-EGF from PBMCs from healthy donors (ELISA, antibody 3 µg/ml) (endogenous human iRhom2) [%]","percent inhibition of PMA-induced release of HB-EGF from THP-1 cells (ELISA, antibody 3 µg/ml) (endogenous human iRhom2) [%]","percent inhibition of PMA-induced release of HB-EGF from U-937 cells (ELISA, antibody 3 µg/ml) (endogenous human iRhom2) [%]","percent inhibition of PMA-induced release of IL-6R from PBMCs from healthy donors (ELISA, antibody 3 µg/ml) (endogenous human iRhom2) [%]","percent inhibition of PMA-induced release of IL-6R from THP-1 cells (ELISA, antibody 3 µg/ml) (endogenous human iRhom2) [%]","percent inhibition of PMA-induced release of IL-6R from U-937 cells (ELISA, antibody 3.33 µg/ml) (endogenous human iRhom2) [%]","percent inhibition of PMA-induced release of TGFα from PC3 cells (ELISA, antibody 10 µg/ml) (endogenous human iRhom2) [%]","percent inhibition of PMA-induced release of TNFα from U-937 cells (ELISA, antibody 3.33 µg/ml) (endogenous human iRhom2) [%]",binding result [1]
B1,68.5,76.1,66.7,86.2,99.4,78.4,71.6,82.4,19.5,87.9,no binding (tested: 3 µg/ml)
B2,64.3,75.2,59.2,81.2,98.8,73.4,68.5,78.3,6.4,85,no binding (tested: 3 µg/ml)
B3,59.4,77.6,49.6,84.4,99.5,64.6,70.1,77.8,21.3,77.2,no binding (tested: 3 µg/ml)
